Target: T1, Human CD137 ECD (human)
T1 construct: entry includes C-terminal His-tag and biotin acceptor peptide; also called human CD137 extracellular domain; 4-1BB
Test: Biacore SPR, vs parent H183/L072

T1 sequence (chain, as listed by the source limits assumed): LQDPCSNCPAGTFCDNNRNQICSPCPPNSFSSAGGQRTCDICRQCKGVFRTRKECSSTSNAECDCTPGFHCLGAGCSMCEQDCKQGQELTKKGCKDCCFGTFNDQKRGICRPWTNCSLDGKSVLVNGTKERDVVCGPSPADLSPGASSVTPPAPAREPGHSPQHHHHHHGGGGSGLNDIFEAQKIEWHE

| Binder | fold change of affinity [fold] |
| --- | --- |
| H183/L072 VL P56V (antibody, name in Kabat numbering, V domains shown, Dual-Ig) VH: QVQLVESGGGLVQPGRSLRLSCAASGFTFSNAWMHWVRQAPGKGLEWVAQIKDKGNAYAAYYAPSVKGRFTISRDDSKNSIYLQMNSLKTEDTAVYYCHYVHYASASTVLPAFGVDAWGQGTTVTVSS VL: DIVMTQSPLSLPVTPGEPASISCQASQELVHMNRNTYLHWYQQKPGQAPRLLIYKVSNRFVGVPDRFSGSGSGTDFTLKISRVEAEDVGVYYCAQGTSVPFTFGQGTKLEIK | 0 |
| H183/L072 VL P95A (antibody, name in Kabat numbering, V domains shown, Dual-Ig) VH: QVQLVESGGGLVQPGRSLRLSCAASGFTFSNAWMHWVRQAPGKGLEWVAQIKDKGNAYAAYYAPSVKGRFTISRDDSKNSIYLQMNSLKTEDTAVYYCHYVHYASASTVLPAFGVDAWGQGTTVTVSS VL: DIVMTQSPLSLPVTPGEPASISCQASQELVHMNRNTYLHWYQQKPGQAPRLLIYKVSNRFPGVPDRFSGSGSGTDFTLKISRVEAEDVGVYYCAQGTSVAFTFGQGTKLEIK | 0 |
| H183/L072 VL P95L (antibody, name in Kabat numbering, V domains shown, Dual-Ig) VH: QVQLVESGGGLVQPGRSLRLSCAASGFTFSNAWMHWVRQAPGKGLEWVAQIKDKGNAYAAYYAPSVKGRFTISRDDSKNSIYLQMNSLKTEDTAVYYCHYVHYASASTVLPAFGVDAWGQGTTVTVSS VL: DIVMTQSPLSLPVTPGEPASISCQASQELVHMNRNTYLHWYQQKPGQAPRLLIYKVSNRFPGVPDRFSGSGSGTDFTLKISRVEAEDVGVYYCAQGTSVLFTFGQGTKLEIK | 0 |
| H183/L072 VL P95E (antibody, name in Kabat numbering, V domains shown, Dual-Ig) VH: QVQLVESGGGLVQPGRSLRLSCAASGFTFSNAWMHWVRQAPGKGLEWVAQIKDKGNAYAAYYAPSVKGRFTISRDDSKNSIYLQMNSLKTEDTAVYYCHYVHYASASTVLPAFGVDAWGQGTTVTVSS VL: DIVMTQSPLSLPVTPGEPASISCQASQELVHMNRNTYLHWYQQKPGQAPRLLIYKVSNRFPGVPDRFSGSGSGTDFTLKISRVEAEDVGVYYCAQGTSVEFTFGQGTKLEIK | 0 |
| H183/L072 VL P95M (antibody, name in Kabat numbering, V domains shown, Dual-Ig) VH: QVQLVESGGGLVQPGRSLRLSCAASGFTFSNAWMHWVRQAPGKGLEWVAQIKDKGNAYAAYYAPSVKGRFTISRDDSKNSIYLQMNSLKTEDTAVYYCHYVHYASASTVLPAFGVDAWGQGTTVTVSS VL: DIVMTQSPLSLPVTPGEPASISCQASQELVHMNRNTYLHWYQQKPGQAPRLLIYKVSNRFPGVPDRFSGSGSGTDFTLKISRVEAEDVGVYYCAQGTSVMFTFGQGTKLEIK | 0 |
| H183/L072 VL P95G (antibody, name in Kabat numbering, V domains shown, Dual-Ig) VH: QVQLVESGGGLVQPGRSLRLSCAASGFTFSNAWMHWVRQAPGKGLEWVAQIKDKGNAYAAYYAPSVKGRFTISRDDSKNSIYLQMNSLKTEDTAVYYCHYVHYASASTVLPAFGVDAWGQGTTVTVSS VL: DIVMTQSPLSLPVTPGEPASISCQASQELVHMNRNTYLHWYQQKPGQAPRLLIYKVSNRFPGVPDRFSGSGSGTDFTLKISRVEAEDVGVYYCAQGTSVGFTFGQGTKLEIK | 0 |
| H183/L072 VL P95H (antibody, name in Kabat numbering, V domains shown, Dual-Ig) VH: QVQLVESGGGLVQPGRSLRLSCAASGFTFSNAWMHWVRQAPGKGLEWVAQIKDKGNAYAAYYAPSVKGRFTISRDDSKNSIYLQMNSLKTEDTAVYYCHYVHYASASTVLPAFGVDAWGQGTTVTVSS VL: DIVMTQSPLSLPVTPGEPASISCQASQELVHMNRNTYLHWYQQKPGQAPRLLIYKVSNRFPGVPDRFSGSGSGTDFTLKISRVEAEDVGVYYCAQGTSVHFTFGQGTKLEIK | 0 |
| H183/L072 VL P95I (antibody, name in Kabat numbering, V domains shown, Dual-Ig) VH: QVQLVESGGGLVQPGRSLRLSCAASGFTFSNAWMHWVRQAPGKGLEWVAQIKDKGNAYAAYYAPSVKGRFTISRDDSKNSIYLQMNSLKTEDTAVYYCHYVHYASASTVLPAFGVDAWGQGTTVTVSS VL: DIVMTQSPLSLPVTPGEPASISCQASQELVHMNRNTYLHWYQQKPGQAPRLLIYKVSNRFPGVPDRFSGSGSGTDFTLKISRVEAEDVGVYYCAQGTSVIFTFGQGTKLEIK | 0 |
| H183/L072 VL P95F (antibody, name in Kabat numbering, V domains shown, Dual-Ig) VH: QVQLVESGGGLVQPGRSLRLSCAASGFTFSNAWMHWVRQAPGKGLEWVAQIKDKGNAYAAYYAPSVKGRFTISRDDSKNSIYLQMNSLKTEDTAVYYCHYVHYASASTVLPAFGVDAWGQGTTVTVSS VL: DIVMTQSPLSLPVTPGEPASISCQASQELVHMNRNTYLHWYQQKPGQAPRLLIYKVSNRFPGVPDRFSGSGSGTDFTLKISRVEAEDVGVYYCAQGTSVFFTFGQGTKLEIK | 0 |
| H183/L072 VL P95K (antibody, name in Kabat numbering, V domains shown, Dual-Ig) VH: QVQLVESGGGLVQPGRSLRLSCAASGFTFSNAWMHWVRQAPGKGLEWVAQIKDKGNAYAAYYAPSVKGRFTISRDDSKNSIYLQMNSLKTEDTAVYYCHYVHYASASTVLPAFGVDAWGQGTTVTVSS VL: DIVMTQSPLSLPVTPGEPASISCQASQELVHMNRNTYLHWYQQKPGQAPRLLIYKVSNRFPGVPDRFSGSGSGTDFTLKISRVEAEDVGVYYCAQGTSVKFTFGQGTKLEIK | 0 |
| H183/L072 VL P56W (antibody, name in Kabat numbering, V domains shown, Dual-Ig) VH: QVQLVESGGGLVQPGRSLRLSCAASGFTFSNAWMHWVRQAPGKGLEWVAQIKDKGNAYAAYYAPSVKGRFTISRDDSKNSIYLQMNSLKTEDTAVYYCHYVHYASASTVLPAFGVDAWGQGTTVTVSS VL: DIVMTQSPLSLPVTPGEPASISCQASQELVHMNRNTYLHWYQQKPGQAPRLLIYKVSNRFWGVPDRFSGSGSGTDFTLKISRVEAEDVGVYYCAQGTSVPFTFGQGTKLEIK | 0 |
| H183/L072 VL P95D (antibody, name in Kabat numbering, V domains shown, Dual-Ig) VH: QVQLVESGGGLVQPGRSLRLSCAASGFTFSNAWMHWVRQAPGKGLEWVAQIKDKGNAYAAYYAPSVKGRFTISRDDSKNSIYLQMNSLKTEDTAVYYCHYVHYASASTVLPAFGVDAWGQGTTVTVSS VL: DIVMTQSPLSLPVTPGEPASISCQASQELVHMNRNTYLHWYQQKPGQAPRLLIYKVSNRFPGVPDRFSGSGSGTDFTLKISRVEAEDVGVYYCAQGTSVDFTFGQGTKLEIK | 0 |
| H183/L072 VL P95N (antibody, name in Kabat numbering, V domains shown, Dual-Ig) VH: QVQLVESGGGLVQPGRSLRLSCAASGFTFSNAWMHWVRQAPGKGLEWVAQIKDKGNAYAAYYAPSVKGRFTISRDDSKNSIYLQMNSLKTEDTAVYYCHYVHYASASTVLPAFGVDAWGQGTTVTVSS VL: DIVMTQSPLSLPVTPGEPASISCQASQELVHMNRNTYLHWYQQKPGQAPRLLIYKVSNRFPGVPDRFSGSGSGTDFTLKISRVEAEDVGVYYCAQGTSVNFTFGQGTKLEIK | 0 |

Other lines, results leading:

| fold change of affinity [fold] | Binder |
| --- | --- |
| 0 | H183/L072 VL P95T (antibody, name in Kabat numbering, V domains shown, Dual-Ig) VH: QVQLVESGGGLVQPGRSLRLSCAASGFTFSNAWMHWVRQAPGKGLEWVAQIKDKGNAYAAYYAPSVKGRFTISRDDSKNSIYLQMNSLKTEDTAVYYCHYVHYASASTVLPAFGVDAWGQGTTVTVSS VL: DIVMTQSPLSLPVTPGEPASISCQASQELVHMNRNTYLHWYQQKPGQAPRLLIYKVSNRFPGVPDRFSGSGSGTDFTLKISRVEAEDVGVYYCAQGTSVTFTFGQGTKLEIK |
| 0 | H183/L072 VL P95Q (antibody, name in Kabat numbering, V domains shown, Dual-Ig) VH: QVQLVESGGGLVQPGRSLRLSCAASGFTFSNAWMHWVRQAPGKGLEWVAQIKDKGNAYAAYYAPSVKGRFTISRDDSKNSIYLQMNSLKTEDTAVYYCHYVHYASASTVLPAFGVDAWGQGTTVTVSS VL: DIVMTQSPLSLPVTPGEPASISCQASQELVHMNRNTYLHWYQQKPGQAPRLLIYKVSNRFPGVPDRFSGSGSGTDFTLKISRVEAEDVGVYYCAQGTSVQFTFGQGTKLEIK |
| 0.9 | H183/L072 VL Q24D (antibody, name in Kabat numbering, V domains shown, Dual-Ig) VH: QVQLVESGGGLVQPGRSLRLSCAASGFTFSNAWMHWVRQAPGKGLEWVAQIKDKGNAYAAYYAPSVKGRFTISRDDSKNSIYLQMNSLKTEDTAVYYCHYVHYASASTVLPAFGVDAWGQGTTVTVSS VL: DIVMTQSPLSLPVTPGEPASISCDASQELVHMNRNTYLHWYQQKPGQAPRLLIYKVSNRFPGVPDRFSGSGSGTDFTLKISRVEAEDVGVYYCAQGTSVPFTFGQGTKLEIK |
| 1 | H183/L072 VL Q24A (antibody, name in Kabat numbering, V domains shown, Dual-Ig) VH: QVQLVESGGGLVQPGRSLRLSCAASGFTFSNAWMHWVRQAPGKGLEWVAQIKDKGNAYAAYYAPSVKGRFTISRDDSKNSIYLQMNSLKTEDTAVYYCHYVHYASASTVLPAFGVDAWGQGTTVTVSS VL: DIVMTQSPLSLPVTPGEPASISCAASQELVHMNRNTYLHWYQQKPGQAPRLLIYKVSNRFPGVPDRFSGSGSGTDFTLKISRVEAEDVGVYYCAQGTSVPFTFGQGTKLEIK |
| 0 | H183/L072 VL P95V (antibody, name in Kabat numbering, V domains shown, Dual-Ig) VH: QVQLVESGGGLVQPGRSLRLSCAASGFTFSNAWMHWVRQAPGKGLEWVAQIKDKGNAYAAYYAPSVKGRFTISRDDSKNSIYLQMNSLKTEDTAVYYCHYVHYASASTVLPAFGVDAWGQGTTVTVSS VL: DIVMTQSPLSLPVTPGEPASISCQASQELVHMNRNTYLHWYQQKPGQAPRLLIYKVSNRFPGVPDRFSGSGSGTDFTLKISRVEAEDVGVYYCAQGTSVVFTFGQGTKLEIK |
| 0 | H183/L072 VL P95W (antibody, name in Kabat numbering, V domains shown, Dual-Ig) VH: QVQLVESGGGLVQPGRSLRLSCAASGFTFSNAWMHWVRQAPGKGLEWVAQIKDKGNAYAAYYAPSVKGRFTISRDDSKNSIYLQMNSLKTEDTAVYYCHYVHYASASTVLPAFGVDAWGQGTTVTVSS VL: DIVMTQSPLSLPVTPGEPASISCQASQELVHMNRNTYLHWYQQKPGQAPRLLIYKVSNRFPGVPDRFSGSGSGTDFTLKISRVEAEDVGVYYCAQGTSVWFTFGQGTKLEIK |
| 0 | H183/L072 VL P95S (antibody, name in Kabat numbering, V domains shown, Dual-Ig) VH: QVQLVESGGGLVQPGRSLRLSCAASGFTFSNAWMHWVRQAPGKGLEWVAQIKDKGNAYAAYYAPSVKGRFTISRDDSKNSIYLQMNSLKTEDTAVYYCHYVHYASASTVLPAFGVDAWGQGTTVTVSS VL: DIVMTQSPLSLPVTPGEPASISCQASQELVHMNRNTYLHWYQQKPGQAPRLLIYKVSNRFPGVPDRFSGSGSGTDFTLKISRVEAEDVGVYYCAQGTSVSFTFGQGTKLEIK |
| 0 | H183/L072 VL P95R (antibody, name in Kabat numbering, V domains shown, Dual-Ig) VH: QVQLVESGGGLVQPGRSLRLSCAASGFTFSNAWMHWVRQAPGKGLEWVAQIKDKGNAYAAYYAPSVKGRFTISRDDSKNSIYLQMNSLKTEDTAVYYCHYVHYASASTVLPAFGVDAWGQGTTVTVSS VL: DIVMTQSPLSLPVTPGEPASISCQASQELVHMNRNTYLHWYQQKPGQAPRLLIYKVSNRFPGVPDRFSGSGSGTDFTLKISRVEAEDVGVYYCAQGTSVRFTFGQGTKLEIK |

Source: patent US20210388087A1 (Chugai, published 2021)
